# PMC6693562 (Cell Reports, 2019)
# Molecular target: the molecule itself
# Assay: SEC-RALS
row,Protein,stoichiometry N
1,"MBP-OD^WT (human 53BP1 oligomerization domain, residues 1233-1288, fused to N-terminal maltose-binding protein) (domain or fragment, UniProt Q12888 1233-1288, looked up) GHVLHRHMRTIREVRTLVTRVITDVYYVDGTEVERKVTEETEEPIVECQECETEVS",4
2,"MBP-OD with mutation of D1256 (D1256A) (domain or fragment, human, UniProt Q12888 1233-1288, looked up) GHVLHRHMRTIREVRTLVTRVITAVYYVDGTEVERKVTEETEEPIVECQECETEVS",2
